Patent EP4628097A1 (Innovent Biologics (Suzhou) Co., Ltd., dated 2025)

Experiments:
human VEGF165 [1] = target: T1, human VEGF165 (human, UniProt P15692-4 27-191); assay: ELISA, relative binding activity; 120 mg/mL formula, T0
T1 construct: all are put under this molecule; also called VEGF A; VEGFA

human Ang2 [2] = target: T2, human Ang2 (human, UniProt O15123 19-496, limits assumed); assay: as above
T2 construct: Bought proteins; also called hAng2-biotin; Ang2-Bio (Sino)
T2 sequence (looked up): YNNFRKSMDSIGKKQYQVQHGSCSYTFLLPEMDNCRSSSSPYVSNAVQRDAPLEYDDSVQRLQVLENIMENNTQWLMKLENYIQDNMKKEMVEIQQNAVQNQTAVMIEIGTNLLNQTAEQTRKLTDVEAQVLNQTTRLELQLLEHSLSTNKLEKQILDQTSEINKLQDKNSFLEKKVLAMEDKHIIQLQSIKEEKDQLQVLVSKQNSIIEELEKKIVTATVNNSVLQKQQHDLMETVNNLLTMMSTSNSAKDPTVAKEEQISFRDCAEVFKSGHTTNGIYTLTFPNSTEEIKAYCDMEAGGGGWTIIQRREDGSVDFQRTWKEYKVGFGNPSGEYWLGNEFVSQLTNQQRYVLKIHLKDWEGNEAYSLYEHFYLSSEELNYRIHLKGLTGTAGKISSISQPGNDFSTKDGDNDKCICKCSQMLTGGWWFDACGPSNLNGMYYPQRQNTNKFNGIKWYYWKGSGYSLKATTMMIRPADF

human VEGF165 [3] = target: T1, human VEGF165; assay: ELISA, relative binding activity; 150 mg/mL formula, T0
human Ang2 [4] = target: T2, human Ang2; assay: as above
human VEGF165 [5] = target: T1, human VEGF165; assay: ELISA, relative binding activity; 120 mg/mL formula, 25 C, 1M
human Ang2 [6] = target: T2, human Ang2; assay: as above
human VEGF165 [7] = target: T1, human VEGF165; assay: ELISA, relative binding activity; 120 mg/mL formula, 40 C, 2W
human VEGF165 [8] = target: T1, human VEGF165; assay: ELISA, relative binding activity; final formula 40 mg/mL, 25 C, 2M
human Ang2 [9] = target: T2, human Ang2; assay: as above
human VEGF165 [10] = target: T1, human VEGF165; assay: ELISA, relative binding activity; final formula 40 mg/mL, 25 C, 3M
human Ang2 [11] = target: T2, human Ang2; assay: as above
human VEGF165 [12] = target: T1, human VEGF165; assay: ELISA, relative binding activity; final formula 40 mg/mL, 40 C, 4W
human Ang2 [13] = target: T2, human Ang2; assay: as above
human VEGF165 [14] = target: T1, human VEGF165; assay: ELISA, relative binding activity; IEX04-012 about 40 mg/mL in F1, 40 C, 1 week
human Ang2 [15] = target: T2, human Ang2; assay: as above
human VEGF165 [16] = target: T1, human VEGF165; assay: ELISA, relative binding activity; IEX04-012 about 40 mg/mL in F5, 40 C, 1 week
human Ang2 [17] = target: T2, human Ang2; assay: as above
human VEGF165 [18] = target: T1, human VEGF165; assay: ELISA, relative binding activity; IEX04-012 about 40 mg/mL in F6, 40 C, 1 week
human Ang2 [19] = target: T2, human Ang2; assay: as above
human VEGF165 [20] = target: T1, human VEGF165; assay: ELISA, relative binding activity; IEX04-012 about 40 mg/mL in F1, 40 C, 0 weeks
human Ang2 [21] = target: T2, human Ang2; assay: as above
human VEGF165 [22] = target: T1, human VEGF165; assay: ELISA, relative binding activity; IEX04-012 about 40 mg/mL in F7, 40 C, 0 weeks
human Ang2 [23] = target: T2, human Ang2; assay: as above
human VEGF165 [24] = target: T1, human VEGF165; assay: ELISA, relative binding activity; IEX04-012 about 40 mg/mL in F7, 40 C, 2 weeks
human Ang2 [25] = target: T2, human Ang2; assay: as above
human VEGF165 [26] = target: T1, human VEGF165; assay: ELISA, relative binding activity; IEX04-012 about 40 mg/mL in F8, 40 C, 0 weeks
human Ang2 [27] = target: T2, human Ang2; assay: as above

T1 sequence (P15692 other isoform, or with tags, fused parts or gaps limits assumed): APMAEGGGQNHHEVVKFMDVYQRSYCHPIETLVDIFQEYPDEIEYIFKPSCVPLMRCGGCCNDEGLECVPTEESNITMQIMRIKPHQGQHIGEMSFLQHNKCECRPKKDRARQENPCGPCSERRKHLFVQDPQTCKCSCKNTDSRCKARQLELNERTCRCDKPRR

Relative binding Activity to VEGF A (ELISA, %) (human VEGF165 [1]): 101% | Relative binding Activity to Ang2 (ELISA, %) (human Ang2 [2]): 92% | Relative binding Activity to VEGF A (ELISA, %) (human VEGF165 [3]): 92% | Relative binding Activity to Ang2 (ELISA, %) (human Ang2 [4]): 103% | Relative binding Activity to VEGF A (ELISA, %) (human VEGF165 [5]): 96% | Relative binding Activity to Ang2 (ELISA, %) (human Ang2 [6]): 93% | Relative binding Activity to VEGF A (ELISA, %) (human VEGF165 [7]): 113% | Relative binding Activity to VEGF A (ELISA, %) (human VEGF165 [8]): 102% | Relative binding Activity to Ang2 (ELISA, %) (human Ang2 [9]): 84% | Relative binding Activity to VEGF A (ELISA, %) (human VEGF165 [10]): 96% | Relative binding Activity to Ang2 (ELISA, %) (human Ang2 [11]): 85% | Relative binding Activity to VEGF A (ELISA, %) (human VEGF165 [12]): 78% | Relative binding Activity to Ang2 (ELISA, %) (human Ang2 [13]): 74% | Relative binding Activity to VEGF (ELISA, %) (human VEGF165 [14]): 98% | Relative binding Activity to Ang2 (ELISA, %) (human Ang2 [15]): 103% | Relative binding Activity to VEGF (ELISA, %) (human VEGF165 [16]): 98% | Relative binding Activity to Ang2 (ELISA, %) (human Ang2 [17]): 82% | Relative binding Activity to VEGF (ELISA, %) (human VEGF165 [18]): 98% | Relative binding Activity to Ang2 (ELISA, %) (human Ang2 [19]): 96% | Relative binding Activity to VEGF (ELISA, %) (human VEGF165 [20]): 100% | Relative binding Activity to Ang2 (ELISA, %) (human Ang2 [21]): 100% | Relative binding Activity to VEGF (ELISA, %) (human VEGF165 [22]): 100% | Relative binding Activity to Ang2 (ELISA, %) (human Ang2 [23]): 100% | Relative binding Activity to VEGF (ELISA, %) (human VEGF165 [24]): 100% | Relative binding Activity to Ang2 (ELISA, %) (human Ang2 [25]): 87% | Relative binding Activity to VEGF (ELISA, %) (human VEGF165 [26]): 100% | Relative binding Activity to Ang2 (ELISA, %) (human Ang2 [27]): 100%
B1: IEX04-012 (bispecific antibody)
chain: DIQLTQSPSSLSASVGDRVTITCSASQDISNYLNWYQQKPGKAPKVLIYFTSSLHSGVPSRFSGSGSGTDFTLTISSLQPEDFATYYCQQYSTVPWTFGCGTKVEIKGGGGSGGGGSGGGGSGGGGSEVQLVESGGGLVQPGGSLRLSCAASGYDFTHYGMNWVRQAPGKCLEWVGWINTYTGEPTYAADFKRRFTFSLDTSKSTAYLQMNSLRAEDTAVYYCAKYPYYYGTSHWYFDVWGQGTLVTVSSGGGGSGGGGSGGGGSEVQLLESGGGLVQPGGSLRLSCAASGFALDYYAIGWFRQAPGKGLEGVSCISSGEGSTYYADSVKGRFTISRDNSKNTVYLQMNSLRAEDTAVYYCATDSRGDDVACEGLRRNEYDYWGQGTLVTVSS
